These results are taken from patent CN116723860A (NOVARTIS AG, dated 2023).

The target in one test is T1, 重组人IL-1β (human, UniProt P01584 117-269).
T1 construct: also called huIL-1β; IL-1b
Briefly: solution equilibrium titration (SET), single target binding assay, mean KD.

The target in a further test is T2, 重组人IL-18 (human, UniProt Q14116 37-193).
T2 construct: also called huIL-18; BTP 25829
Briefly: SET, single target binding assay.

B1: mAb2 (antibody, human IgG1, kappa, V domains shown)
VH: QVQLVESGGGVVQPGRSLRLSCAASGFTFSVYGMNWVRQAPGKGLEWVAIIWYDGDNQYYADSVKGRFTISRDNSKNTLYLQMNGLRAEDTAVYYCARDLRTGPFDYWGQGTLVTVSS
VL: EIVLTQSPDFQSVTPKEKVTITCRASQSIGSSLHWYQQKPDQSPKLLIKYASQSFSGVPSRFSGSGSGTDFTLTINSLEAEDAAAYYCHQSSSLPFTFGPGTKVDIKR
notes: Human anti-IL-1β antibody, bivalent; also called IL-1β抗体; 卡那吉努单抗 (canakinumab)
For orientation: Kd means a measure of binding affinity in units of concentration. High values mean lower affinity, low ones higher affinity. In the test with 重组人IL-1β, B1 gave a dissociation constant Kd of 0.6 pM.

B2: mAb1 (antibody, human IgG1, lambda, L234A L235A, V domains shown)
VH: EVQLVQSGAEVKKPGSSVKVSCKASGGTFKSYAISWVRQAPGQGLEWMGNIIPMTGQTYYAQKFQGRVTITADESTSTAYMELSSLRSEDTAVYYCARAAYHPLVFDNWGQGTLVTVSS
VL: DIVLTQPPSVSGAPGQRVTISCSGSSSNIGNHYVNWYQQLPGTAPKLLIYRNNHRPSGVPDRFSGSKSGTSASLAITGLQSEDEADYYCQSWDYSGFSTVFGGGTKLTVLG
notes: Human anti-IL-18 antibody, bivalent; also called IL-18抗体
B2: the binding result with 重组人IL-18 is “binds”.
